Measurements taken from the DeepSol protein solubility set.

Test: soluble on expression in E. coli; label from the status in PepcDB or PDB records

Sequence | soluble on expression in E. coli
MGSDKIHHHHHHMKYDVVVIGAGGAGYHGAFRLAKAKYNVLMADPKGELGGNCLYSGCVPSKTVREVIQTAWRLTNIANVKIPLDFSTVQDRKDYVQELRFKQHKRNMSQYETLTFYKGYVKIKDPTHVIVKTDEGKEIEAETRYMIIASGAETAKLRLPGVEYCLTSDDIFGYKTSFRKLPQDMVIIGAGYIGLEIASIFRLMGVQTHIIEMLDRALITLEDQDIVNTLLSILKLNIKFNSPVTEVKKIKDDEYEVIYSTKDGSKKSIFTNSVVLAAGRRPVIPEGAREIGLSISKTGIVVDETMKTNIPNVFATGDANGLAPYYHAAVRMSIAAANNIMANGMPVDYVDVKSIPVTIYTIPSLSYVGILPSKARKMGIEIVEAEYNMEEDVSAQIYGQKEGVLKLIFERGSMRLIGAWMIGVHSQYLINELGLAVAYGLNAKQLASFAEQHPSTNEIISYTARKVI | not soluble
MGSDKIHHHHHHMFLSSMKLGIQSYSLRKLTYENALKVMSELGISYVEAFPRHLPPSSNSVKDIINLHKENGVKVIAHGVNHLKSDKKELRSIFDFANKVEIEVITADPDEDCLNLMSDLVKEYDIKVAIHNHGPYHRWGSYKKIYEFTKNLDYRVGMCLDLAHLFRYGENPIEAVNTLRDRIHDIHVKDVNNKGEDVIVGSGILDVKGVIGKVKELNLDIPLMIEYEPEPENPLPGIVKSLEYVKKLL | not soluble
MGSDKIHHHHHHMKIAIVGGPTAVGKTDIMIEVCEEIGAEIISMDSRQIYRYMDIGTAKPTPEQRKRVLHHMIDIIDPDEYYNAFMYRKDSLRAMEDVLRRGKIPVYVGGTGLYADALVRGIFEGVPADENIRKELRELERREPGILRKMLEELDPEAATRIHPNDLKRTIRALEVYMKTGRRISELQKEAKGDDRFFIIVLTRERYELYERINKRVDKMIEMGLVDEVKRLLGMGYSKDLNSMKTIGYKEVIDYLEGKYDFDKMVHLIKRNTRHFARRQIIWFKRYKEAVWYNLTFEDVGEVKEKLKKLIVENFSV | not soluble
MGHHHHHHSHMEEERRDDYKFLRIQDAFKALHLHVNLIGVIVELGFSNGSDCSCTLKIVDPWYSGSGLPVKFVARTIRDLPRVESIGDIILLSRVKIVLINRKITALCNETTSSSFALFNGKHSVDSIPYQSSPKFLMREQDKNFLSNLREWMITYKFEDGS | not soluble
MGHHHHHHSHMTDPLAPEGDNRVWYMDGYHNNRFVREYKSMVDFMNTDNFTSHRLPHPWSGTGQVVYNGSIYFNKFQSHIIIRFDLKTETILKTRSLDYAGYNNMYHYAWGGHSDIDLMVDESGLWAVYATNQNAGNIVVSRLDPVSLQTLQTWNTSYPKRSAGEAFIICGTLYVTNGYSGGTKVHYAYQTNASTYEYIDIPFQNKYSHISMLDYNPKDRALYAWNNGHQILYNVTLFHVIRSDEL | not soluble
MARDEVRRILPADIKREVLIKDENAETNPDWGFPPEKRPIEMHIQFGVINLDKPPGPTSHEVVAWIKKILNLEKAGHGGTLDPKVSGVLPVALEKATRVVQALLPAGKEYVALMHLHGDVPEDKIIQVMKEFEGEIIQRPPLRSAVKRRLRTRKVYYIEVLEIEGRDVLFRVGVEAGTYIRSLIHHIGLALGVGAHMSELRRTRSGPFKEDETLITLHDLVDYYYFWKEDGIEEYFRKAIQPMEKAVEHLPKVWIKDSAVAAVTHGADLAVPGIAKLHAGIKRGDLVAIMTLKDELVALGKAMMTSQEMLEKTKGIAVDVEKVFMPRDWYPKLWEKRDRSHHHHHH | soluble
MNKKIGITLGDPAGIGPELILKISKHFKEKFTYVIYGEEKTLLEASKLTGIKLNYKKIEKVEEAKERGVYLIDLNVLKVPVVEPSVSSGKAAVAYLARAVADAIRGNIHGILTMPINKFWAKKAGFQYEGQTEFLAKASGTKDYAMMMYSEKLKVVLLTTHIPLKDVPNYVKKEEILKKVRLIRKEFLEKFKFEPLIKVLGLNPHAGEMGELGREEIEEIIPAVEEAKKEGIKVVGPLVPDVAFINPSEEDVFLCMYHDQGLIPFKMLAFDEGVNFTLGLPFIRTSPDHGTAYDIAWKNKARESSSLHALRLIEDLLDKI | soluble
TKDFEWKTTVTASHNANKLLSLSNDLYETSNQIDHAYLGEPINLSTQRMEVGRSMGQFYGMKSVGVSENGLWMVENTKTGEIEEFTDNMLSNDDYRQYLGNALPKLYLGWNNSFRYKNFDLSFQMTGQFGFKILNEPRAYYENNSIAYNRLKSVQKAPYGGQYTLSTAQKQTFVSYYLEDGDFLKMTNITLGYNIPLKSSKFVKNIRAYVSADNLFCITGYDGLDPEMSNGDIWSLGIDWRDKYPSTRSFTFGLNVSF | not soluble
MAHHHHHHMDAPVNVFLRFGLSHSERLNHLLERVGTAQAAFRIVGPRQQEGVARTPAHPHDGADCARVGAPFSVHSGSCSHTCKGEAHDELCASLARLPPLPSPPPASHTCYCLHRTRFRCFCFPSPSLLQRRTLGGGGIGVGRAADVQHPFNGQEPALSVYFTHCHAGLRRTSPRCLISYCGRVSSLRFAFPLGDQVTFFVPLFHTDTSSMGTTHEYEPPVAMKPLEELTDADRREMRDLGIGEGMFNCILTSCMKFALSGGWSVRKHDAKYDIVWETKPSQNSNKQAMRFTAKVPNCNTGSLEAILVADEYLEDDPNVSYMYKYDRLLQQNHAEKRIAGNVTVQSTHYGAPVMFVAPRHIISYVTLGALLTPAQQKELWIRPTGLRDQLADAERKDDLMAFTQCCIDYTGDAVELRKGSERGHVYSYSLLGQEEPDGSMTVTMTLDIDPAGKLPAKVVDMSSDEQHKKMQRIVELLKAKGPQPHLCSVYQNTRDFPFRNPSKGEGEGKRS | soluble
DCCSCQEKWVGYRCNCYFISSEQKTWNESRHLCASQKSSLLQLQNTDELDFMSSSQQFYWIGLSYSEEHTAWLWENGSALSQYLFPSFETFNTKNCIAYNPNGNALDESCEDKNRYICKQQLI | soluble
SNAMNIQILQEQANTLRFLSADMVQKANSGHPGAPLGLADILSVLSYHLKHNPKNPTWLNRDRLVFSGGHASALLYSFLHLSGYDLSLEDLKNFRQLHSKTPGHPEISTLGVEIATGPLGQGVANAVGFAMAAKKAQNLLGSDLIDHKIYCLCGDGDLQEGISYEACSLAGLHKLDNFILIYDSNNISIEGDVGLAFNENVKMRFEAQGFEVLSINGHDYEEINKALEQAKKSTKPCLIIAKTTIAKGAGELEGSHKSHGAPLGEEVIKKAKEQAGFDPNISFHIPQASKIRFESAVELGDLEEAKWKDKLEKSAKKELLERLLNPDFNKIAYPDFKGKDLATRDSNGEILNVLAKNLEGFLGGSADLGPSNKTELHSMGDFVEGKNIHFGIREHAMAAINNAFARYGIFLPFSATFFIFSEYLKPAARIAALMKIKHFFIFTHDSIGVGEDGPTHQPIEQLSTFRAMPNFLTFRPADGVENVKAWQIALNADIPSAFVLSRQKLKALNEPVFGDVKNGAYLLKESKEAKFTLLASGSEVWLCLESANELEKQGFACNVVSMPCFELFEKQDKAYQERLLKGEVIGVEAAHSNELYKFCHKVYGIESFGESGKDKDVFERFGFSVSKLVNFILSK | soluble
MGELIYGEVKKQTKDGFIIDLGDNAEAYLAREEMIAKEILRPKQRMNAILYSVNREGRGAQLLLSRALEHHHHHH | not soluble
MLRRRTFLSWSSGKDSAWALHVLRQDPHVDVIGLFCTVNKVFDRVVMHGVRVALLQQQAESAGLPLHIIEIPYPCSNDEYASAMSAFVDSARKENIECFAFGDLLLEDVRQYREDRLNGTGITPIFPLWGIPTKTLSREMVAGGLKAVITCIDPKRIPESFAGREYNESFLDDIPGSVDPCGEYGEFHTFSFDGPMFQNPIDVVLGETVHRDGFVFTDLLSLTSSTEPTH | not soluble
TWVVSPAEKAKYDEIFLKTDKDMDGFVSGLEVREIFLKTGLPSTLLAHIWSLCDTKDCGKLSKDQFALAFHLISQKLIKGIDPPHVLTPEMIPPS | soluble
MLIFKIFRRSEWDDFRRAGATAGAPVDLADGYIHFSTAAQVAETAAKHFTAESDLVLVAIDPDRAGPDLKWEPSRGEQLFPHLYRRLTLDDVVWDKSLPLGATGHIFPEGLWLEHHHHHH | soluble
MTTQVKPIRSFLFVPGNKESMLDKAALAKADALILDLEDSVPPAEKLAARELVARKIPALIAQGQRIWVRINRSAHIYDLDDILAVAQPGVEGVVISKPWGPEDVYMASSMIAEAETRANLPLGSIGLIPLLETARSMQLCYEIAQMPRVVGIVGATAKNADMGRALKFVWTPEGRETEYLKSRVVMAARAAGKQAIGGIWQQIKDLEGLARSSAFDRQLGMSGELALHPMQVETINRTYTPTAEDVAYYQGMIDALDAAQAQGRASVMYDGEHIDIAHVKTAHEVIALARAFDAAAALEHHHHHH | soluble
MGSDKIHHHHHHMTEKWLSIVGIGEDGLQGLSAIARSLVDRAKVIVGGDRHLAMLPTDDQREKIVWTSPISISVDEIIQRRGQSICVLASGDPMCYGIGVTLMRRIPVSEMTIIPAPSAFSLACARMGWSLTEVETLSLNGRPSSLLQSYIYPKARLLILSGGKDTPAIVAKILTNRGYGGSEITVLERMGGTHERIVEGTAASWSETEVAALNAIAVYCIADAGVIPLPRLPGLPDNAYHHDGQLTKREVRAITLAALAPTPGQLLWDVGAGCGSISIEWMRSNARCRAIAIEQNSSRLLYIADNAATLGTPNVQIIEGKAPHALKDLPAPDAIFIGGGVTATGLFDVCWEALRPGGRLVANVVTVEGEQTLFQWHERVGGDLTRVAIQRTEPIGKFLGWRAMAPVTQWVVVK | not soluble
MGSDKIHHHHHHMSRLIEQIKQKDACAFTHGGKFHADDVFSSALLLYINPEISITRGNSVPDDFTGIVFDIGRGEFDHHQKDSRIRENGVPYAAFGLLWEAVGADILGKELAVKFDESFVQPLDNNDNTGEKNELATLIGNFNPSWDYEGGSDEAFFQAVSVAGMILENKFERYRGNERADKRVEEVLAKHDPASRILVLPEFIPCQKALSETDIAFVIFPSNRGGFCIQPQKREYSMNYKCSFPAEWLGLEGEELVNATGIPGAIFCHKGGFIMTVKEQDEAVKACEKALSLHKDSSVIVWYGSKGDTAAMACDSQTDELLINVAKARGIKGVHICHVDAMPVPQLELTELDSETAYAEVLMEKPQWKAYVKEQVKQIVKYRPEAVYVEGNAFETYPVIRALRKKHIPVLTMIENKEKKIMVRIP | not soluble
MAHHHHHHMASGCLKYASVDDFIAKCILSRDPYQPEFTQAVREVMTSLWPFLQKNPKYTQDGLLERIVEPERVIQFRVPWVDDKGVTHVNRAFRVQFNSAIGPYKGGMRFHPSVNLSILKFLGFEQTFKNSLTTLPMGGGKGGADFDPKGKSDCEVMRFCQSLVAELYRHIGADTDVPAGDIGVGSREVGYMNGMYWKLRNTNECTFTGKGLAFQGSAIRPEATGYGLVYFVQSMLTHVNDSLEGKTVLVSGSGNVAQYAIEKCMELGAKVITASDSKGYIQDPSGFDKVKLAKLMKLKNECRGTLEEYARETGVTYVPGKRPWCVKADIALPCATQNEIEGADAKTMLTNGVKLVAEGANMPTTEEATEIFQKAGVLFAPGKASNAGGVAISGLEMSQNAARLVWDAEEVDSRLRSIMSSIHDSCVQYGEKDGKVSYVDGANIAGFACFLRRRTFATRVSPVHQVLCT | soluble
MPANKAKYKIIKQQVKNNILSARYKIGDRLPTESDFMAEFDVSRFTIRRAIDELVNENFVRRVQGNGMYIKDWHKVNKADEDLRTIAVITTHVADYIFPNIINAIDKVISDAGYSLILANTHNDPKRERDNLLRLLKLKPSAWIIEPTQSAVNRENLDLYQQIKKLDVPAVFINSSYPGIGFPCLKTDDRGSLSELTNYLFSIGHRRIMGVFQIDDIQGVERMKGFADAYLGHPYFSDRQTTIMYKSTDDYDEIFTRITNFYKNQTVDKPDAIICYNDQLAIALIDNLKEQGWKIPEDISIIGFDDYNISRYITPTLTTLSHPKSQMGRDAGKMILNLIDNKAVKSITYYPELVLRKSVMPI | not soluble
